The record followed here is patent US20250002610A1 (Genmab, published 2025).

For test [1], the target named is T1, human DR4 (Death Receptor 4), cell surface expressed on human tumor cell lines (human, UniProt O00220 24-468).
T1 construct: also called TNFRSF10A; TRAIL-R1
T1 sequence: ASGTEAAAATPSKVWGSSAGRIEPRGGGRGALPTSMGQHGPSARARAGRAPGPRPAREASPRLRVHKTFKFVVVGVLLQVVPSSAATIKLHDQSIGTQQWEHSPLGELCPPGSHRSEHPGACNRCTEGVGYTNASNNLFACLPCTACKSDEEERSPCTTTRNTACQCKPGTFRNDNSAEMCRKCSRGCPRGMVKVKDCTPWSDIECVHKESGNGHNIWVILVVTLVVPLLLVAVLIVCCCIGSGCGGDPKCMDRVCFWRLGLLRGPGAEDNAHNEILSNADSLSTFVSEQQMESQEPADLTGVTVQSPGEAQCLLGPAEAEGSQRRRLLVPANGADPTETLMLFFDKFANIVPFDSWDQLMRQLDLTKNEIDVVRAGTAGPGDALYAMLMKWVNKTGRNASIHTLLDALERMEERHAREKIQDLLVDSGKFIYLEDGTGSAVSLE
The test is described as follows: flow cytometry, A549 cells, n = 2. On the technique in general: A flow cytometer gives signals particle by particle.

For test [2], the target named is T1, human DR4 (Death Receptor 4), cell …. As to the kind of experiment: flow cytometry, HCT-15 cells, n = 2.
Test [3] has the same target. The test is described as follows: flow cytometry, MDA-MB-231 cells, N = 2.
The target is the same in test [4]. The test is described as follows: flow cytometry, PANC-1 cells, average ± SEM.
Test [5] shares this target. As to the kind of experiment: flow cytometry, HCT-116 cells, average ± SEM.
Test [6] shares this target. As to the kind of experiment: flow cytometry, MDA-MB-231 cells, average ± SEM.
Test [7] shares this target. As to the kind of experiment: flow cytometry, MDA-MB-231 cells, average ± SEM. This is another data set of the same source.
Test [8] deals with T2, dog FAPα on Expi293F cells (dog (Canis familiaris), UniProt A5D7B7 1-760 (bovine entry)).
T2 chain: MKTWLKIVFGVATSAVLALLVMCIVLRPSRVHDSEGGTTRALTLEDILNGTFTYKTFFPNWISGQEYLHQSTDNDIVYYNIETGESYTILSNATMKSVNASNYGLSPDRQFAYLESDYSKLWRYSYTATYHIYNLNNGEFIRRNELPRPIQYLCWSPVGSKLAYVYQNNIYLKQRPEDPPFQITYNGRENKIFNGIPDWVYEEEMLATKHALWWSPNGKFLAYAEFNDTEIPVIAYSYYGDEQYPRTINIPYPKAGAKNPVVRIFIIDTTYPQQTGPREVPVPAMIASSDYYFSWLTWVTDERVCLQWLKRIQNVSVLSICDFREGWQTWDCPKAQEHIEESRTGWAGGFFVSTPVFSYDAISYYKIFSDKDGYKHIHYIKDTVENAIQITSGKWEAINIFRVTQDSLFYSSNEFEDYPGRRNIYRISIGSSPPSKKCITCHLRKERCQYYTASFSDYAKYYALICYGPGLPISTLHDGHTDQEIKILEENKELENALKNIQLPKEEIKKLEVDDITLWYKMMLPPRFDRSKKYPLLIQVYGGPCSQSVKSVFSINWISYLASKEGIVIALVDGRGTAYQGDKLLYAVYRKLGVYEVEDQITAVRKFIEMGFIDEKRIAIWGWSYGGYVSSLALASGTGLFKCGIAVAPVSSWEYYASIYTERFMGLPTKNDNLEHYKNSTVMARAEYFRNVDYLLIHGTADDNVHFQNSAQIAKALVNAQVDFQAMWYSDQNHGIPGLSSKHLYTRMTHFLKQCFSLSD
The test is described as follows: flow cytometry on Expi293F cells transiently expressing dog FAPα, gMFI PE. On the procedure: Binding of BisG1-FAPα-FERL/DR4-FERR, BisG1-FAPα-FEAL/b12-FEAR and IgG1-FAPα-FERL to FAPα of species commonly used for nonclinical toxicology studies was assessed by flow cytometry using Expi293F cells transiently expressing FAPα from different animal species. IgG1-b12 was included as negative control.
Expi293F cells expressing recombinant FAPα from various species (human, cynomolgus monkey, dog, pig, rat or mouse) were seeded (20,000 cells/well) in 96-Well round bottom plates (Greiner Bio-one, Cat #650101). Antibody dilutions were prepared using FACS buffer, consisting of PBS (Capricorn Scientific, Cat #PBS-10XA, diluted to 1×PBS in distilled water)+1% BSA (Roche, Cat #10735086001)+0.02% Sodium Azide (Bio-World, Cat #41920044-3). Plates were centrifuged, supernatant was removed, and cells were resuspended in 100 μL of antibody dilutions (concentration range 30-0.00017 μg/mL with three-fold serial dilutions using FACS buffer) of BisG1-FAPα-FERL/DR4-FERR, BisG1-FAPα-FEAL/b12-FEAR, IgG1-FAPα-FERL and IgG1-b12 and incubated for 30 min at 4° C. […] After 30 min incubation at 4° C., cells were washed with FACS buffer and resuspended in FACS buffer supplemented with TO-PRO-3 Iodide viability marker (Invitrogen, Cat #T3605, diluted 1:4,000). Antibody binding to viable cells (gMFI of PE on TO-PRO-3 negative cells) was analyzed by flow cytometry on a FACS Celesta and FACS_Diva software (first two experiments) or iQue® 3 and FlowJo software (last experiment). gMFI was determined and visualized using GraphPad Prism. Binding curves were analyzed using nonlinear regression analysis. The concentration (pg/mL) at which 50% of the maximal effect was observed (EC₅₀) was derived from the fitted curves.

Usually EC50 stands for the midpoint of the concentration-response curve. Lower therefore signals greater potency.

B1: BisG1-FAPα-FERL/DR4-FERR (bispecific antibody, human IgG1, kappa, lambda)
heavy 1: EVQLLESGGGLVQPGGSPRLSCEASGFTFSSYALSWVRQAPGKGLEWVSAISGSGGGRYYADSVKGRFTISRDNSKNTLFLQMNSLRAEDTAVYYCAKEGYSSSGTYWDHWGQGTLVTVSSASTKGPSVFPLAPSSKSTSGGTAALGCLVKDYFPEPVTVSWNSGALTSGVHTFPAVLQSSGLYSLSSVVTVPSSSLGTQTYICNVNHKPSNTKVDKRVEPKSCDKTHTCPPCPAPEFERGPSVFLFPPKPKDTLMISRTPEVTCVVVDVSHEDPEVKFNWYVDGVEVHNAKTKPREEQYNSTYRVVSVLTVLHQDWLNGKEYKCKVSNKALPAPIEKTISKAKGQPREPQVYTLPPSREEMTKNQVSLTCLVKGFYPSDIAVEWESNGQPENNYKTTPPVLDSDGSFLLYSKLTVDKSRWQQGNVFSCSVMHEALHNHYTQKSLSLSPG
light 1: AIQMTQSPSSVSASVGDRVTITCRASQGVSSWLAWYQQKPGRAPKLLIYVASTLQSGVPSRFSGSGSGTDFTLTINSLQPEDFATYYCQQANSFPPTFGQGTRLEMKRTVAAPSVFIFPPSDEQLKSGTASVVCLLNNFYPREAKVQWKVDNALQSGNSQESVTEQDSKDSTYSLSSTLTLSKADYEKHKVYACEVTHQGLSSPVTKSFNRGEC
heavy 2: QVQLQESGPGLVKPSGTLSLTCAVSGGSISSYSWWSWIRQPPGKGLEWIGELYHSGSTNYNPSLKSRVTISVDKSKNQFSLKLRSVTAADTAVYYCVRGVATIDYWGQGTLVTVSSASTKGPSVFPLAPSSKSTSGGTAALGCLVKDYFPEPVTVSWNSGALTSGVHTFPAVLQSSGLYSLSSVVTVPSSSLGTQTYICNVNHKPSNTKVDKRVEPKSCDKTHTCPPCPAPEFERGPSVFLFPPKPKDTLMISRTPEVTCVVVDVSHEDPEVKFNWYVDGVEVHNAKTKPREEQYNSTYRVVSVLTVLHQDWLNGKEYKCKVSNKALPAPIEKTISKAKGQPREPQVYTLPPSREEMTKNQVSLTCLVKGFYPSDIAVEWESNGQPENNYKTTPPVLDSDGSFFLYSRLTVDKSRWQQGNVFSCSVMHEALHNHYTQKSLSLSPG
light 2: QSALTQPPSASGSPGQSVTISCTGTSSDVGGYNFVSWYQQDPGKAPKLLIYEVTKRPSGVPDRFSGSKSGNTASLTVSGLQAEDEADYYCSSYAGSNNVMFGGGTKLTVLGQPKAAPSVTLFPPSSEELQANKATLVCLISDFYPGAVTVAWKADSSPVKAGVETTTPSKQSNNKYAASSYLSLTPEQWKSHRSYSCQVTHEGSTVEKTVAPTECS
notes: Human IgG1 bispecific made by controlled Fab-arm exchange of IgG1-FAPα-FERL and IgG1-DR4-FERR; monovalent for FAPα and for DR4; also called GEN1057
On to B1, for which the EC50 in test [1] was determined as 0.93 µg/mL; in test [2], 0.69 µg/mL; in test [3] it was 0.72 µg/mL; in test [4] it was 1.7 µg/mL; in test [5], 0.52 µg/mL; in test [6], 1.18 µg/mL. Further, a half-maximal effect in test [7] (EC50) was put at 0.72 µg/mL. The binding result in test [8] is recorded as “binds”.
